Data reported in patent US20230212285A1.

Columns and labels:
[1] = molecular target: human FcγRI, His6-tagged (human) (UniProt P12314); assay: SPR, 1:1 kinetic
[2] = molecular target: human FcγRIIb, His6-tagged (human) (UniProt P31994); assay: SPR, steady state
Sequence of human FcγRIIb, His6-tagged (human) (P31994 43-217 limits assumed): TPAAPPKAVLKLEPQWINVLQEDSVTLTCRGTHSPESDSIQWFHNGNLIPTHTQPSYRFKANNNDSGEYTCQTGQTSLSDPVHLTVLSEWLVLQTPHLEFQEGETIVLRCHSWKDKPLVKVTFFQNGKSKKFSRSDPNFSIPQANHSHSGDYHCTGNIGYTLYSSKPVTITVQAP

Sequence of human FcγRI, His6-tagged (human) (P12314 16-288 limits assumed): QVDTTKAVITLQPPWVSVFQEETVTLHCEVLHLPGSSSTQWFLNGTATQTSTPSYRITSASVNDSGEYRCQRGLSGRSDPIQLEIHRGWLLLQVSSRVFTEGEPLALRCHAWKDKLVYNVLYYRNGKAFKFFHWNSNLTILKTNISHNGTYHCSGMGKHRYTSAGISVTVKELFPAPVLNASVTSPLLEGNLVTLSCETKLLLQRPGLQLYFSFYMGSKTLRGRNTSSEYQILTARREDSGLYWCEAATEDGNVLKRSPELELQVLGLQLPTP

Kd [1]: 0.00925 µM | Kd [2]: 23.1 µM
Substance: isotype control human IgG4 (antibody)
